In patent US20220153854A1 (Ablynx, published 2022):

Key:
human OX40L [1] = target: T1, human OX40L (human, UniProt P23510 51-183); assay: SPR
T1 construct: Protein in solution or immobilised (SPR, Gyrolab); construct not described; also called huOX40L; hOX40L
T1 sequence (looked up): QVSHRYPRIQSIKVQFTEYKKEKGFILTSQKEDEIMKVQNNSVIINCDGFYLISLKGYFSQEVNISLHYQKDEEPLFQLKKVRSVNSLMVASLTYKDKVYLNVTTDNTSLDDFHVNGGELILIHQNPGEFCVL

cyno OX40L [2] = target: T2, cyno OX40L (cynomolgus monkey, UniProt G7NVH7 51-183); assay: SPR
T2 construct: also called cyOX40L; cynomolgus monkey OX40L
T2 sequence: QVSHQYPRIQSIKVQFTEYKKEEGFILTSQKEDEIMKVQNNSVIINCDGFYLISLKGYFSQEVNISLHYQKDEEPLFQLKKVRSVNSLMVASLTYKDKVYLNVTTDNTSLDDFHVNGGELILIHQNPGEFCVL

[3] = target: T3, membrane bound human OX40L on CHO-KI cells (human, UniProt P23510 1-183); assay: cell-based or functional assay
T3 sequence (looked up): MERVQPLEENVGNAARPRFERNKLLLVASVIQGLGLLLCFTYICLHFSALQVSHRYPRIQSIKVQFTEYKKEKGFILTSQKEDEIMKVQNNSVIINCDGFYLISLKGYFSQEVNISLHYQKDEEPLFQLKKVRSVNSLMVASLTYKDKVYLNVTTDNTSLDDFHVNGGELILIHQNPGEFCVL

[4] = target: T4, membrane bound cyno OX40L on CHO-KI cells (cynomolgus monkey, UniProt G7NVH7 1-183); assay: cell-based or functional assay
T4 sequence: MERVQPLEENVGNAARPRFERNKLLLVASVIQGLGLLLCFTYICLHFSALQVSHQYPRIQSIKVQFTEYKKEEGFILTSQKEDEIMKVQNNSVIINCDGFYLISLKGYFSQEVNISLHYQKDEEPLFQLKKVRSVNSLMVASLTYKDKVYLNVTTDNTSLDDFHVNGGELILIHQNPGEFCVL

human OX40L [5] = target: T1, human OX40L; assay: SPR KD against parental F027300042 (15B07)
cyno OX40L [6] = target: T2, cyno OX40L; assay: SPR KD against parental F027300042 (15B07)

B1: F027301552 (15B07AM) (VHH)
VHH: DVQLVESGGGVVQPGGSLRLSCAASRSIGRYDRMGWYRHRPGEPRELVATITGGSSINYGDSVKGRFTISIDNSKNTVYLQMNSLRPEDTALYYCNFNKYQISRDTWGQGTLVTVSS
Human OX40L [1]
  Kd: 0.0853 nM
Cyno OX40L [2]
  Kd: 0.108 nM
[3]
  IC50 (nM) PBMC assay human OX40L: 1.78 nM
[4]
  IC50 (nM) PBMC assay cyno OX40L: 7.58 nM
Human OX40L [5]
  Fold improved affinity vs parental: 53 fold
Cyno OX40L [6]
  Fold improved affinity vs parental: 92 fold
